Experimental data reported in PMC5586245, “2017 publication guidelines for structural modelling of small-angle scattering data from biomolecules in solution: an update” (Acta Crystallographica. Section D, Structural Biology, 2017).

Biological target: the molecule itself
Experiment: SEC-SAXS; inline SEC (5 x 150 mm Superdex S200, 0.45 ml/min) with SAXS at the Australian Synchrotron SAXS/WAXS beamline, sheath-flow cell; 25 mM MOPS, 250 mM NaCl, 50 mM KCl, 2 mM TCEP, 0.1% NaN3 pH 7.5; 22 °C; mass from I(0), Porod volume and fit of crystal structures

B1: glucose isomerase (enzyme)
chain: not shown
notes: glucose isomerase (xylose isomerase), Streptomyces rubiginosus, UniProt P24300 residues 2-388; Tetramer; M from chemical composition 172912 Da for the tetramer; also called GI; GI (tetramer); source: bought: Hampton Research (HR7-100); stored in diluted form, repeated freeze-thaw cycles; no purification step before the SEC-SAXS column
stoichiometry N: 4
